Source: article PMC8834548, “Epiregulin as an Alternative Ligand for Leptin Receptor Alleviates Glucose Intolerance without Change in Obesity” (Cells, 2022)

B1: mouse leptin (ligand, UniProt P41160 22-167, looked up)
chain: VPIQKVQDDTKTLIKTIVTRINDISHTQSVSAKQRVTGLDFIPGLHPILSLSKMDQTLAVYQQVLTSLPSQNVLQIANDLENLRDLLHLLAFSKSCSLPQTSGLQKPESLDGVLEASLYSTEVVALSRLQGSLQDILQQLDVSPEC
notes: leptin, mouse, Crystal Chem 90030-B; source: bought: Crystal Chem, 90030-B

How the values were obtained:
[1] = target: mouse recombinant leptin receptor (LepR) protein (mouse) (UniProt P48356); assay: quartz crystal microbalance with dissipation (QCM-D); LepR (1.6 pM in PBS) laid as a monolayer on a gold quartz sensor, then mouse leptin or mouse EREG (1.6 fM) added; PBS pH 7.1-7.5, 25 C, flow 50 uL/min; frequency, dissipation and modelled film thickness
[2] = target: leptin receptor (LepR), endogenous in mouse adipose tissue (mouse (endogenous in Lep^ob adipose tissue)) (UniProt P48356)
[3] = target: T1, mouse recombinant leptin receptor (LepR) protein (mouse, UniProt P48356 22-839); assay: quartz crystal microbalance with dissipation (QCM-D); LepR (1.6 pM in PBS) laid as a monolayer on a gold quartz sensor, then mouse leptin or mouse EREG (1.6 fM) added; PBS pH 7.1-7.5, 25 C, flow 50 uL/min; frequency, dissipation and modelled film thickness; conditions: both partners purified
T1 construct: leptin receptor, mouse, recombinant, R&D systems 497-LR/CF; also called recombinant LepR; source: bought: R&D systems, 497-LR/CF
T1 sequence (looked up): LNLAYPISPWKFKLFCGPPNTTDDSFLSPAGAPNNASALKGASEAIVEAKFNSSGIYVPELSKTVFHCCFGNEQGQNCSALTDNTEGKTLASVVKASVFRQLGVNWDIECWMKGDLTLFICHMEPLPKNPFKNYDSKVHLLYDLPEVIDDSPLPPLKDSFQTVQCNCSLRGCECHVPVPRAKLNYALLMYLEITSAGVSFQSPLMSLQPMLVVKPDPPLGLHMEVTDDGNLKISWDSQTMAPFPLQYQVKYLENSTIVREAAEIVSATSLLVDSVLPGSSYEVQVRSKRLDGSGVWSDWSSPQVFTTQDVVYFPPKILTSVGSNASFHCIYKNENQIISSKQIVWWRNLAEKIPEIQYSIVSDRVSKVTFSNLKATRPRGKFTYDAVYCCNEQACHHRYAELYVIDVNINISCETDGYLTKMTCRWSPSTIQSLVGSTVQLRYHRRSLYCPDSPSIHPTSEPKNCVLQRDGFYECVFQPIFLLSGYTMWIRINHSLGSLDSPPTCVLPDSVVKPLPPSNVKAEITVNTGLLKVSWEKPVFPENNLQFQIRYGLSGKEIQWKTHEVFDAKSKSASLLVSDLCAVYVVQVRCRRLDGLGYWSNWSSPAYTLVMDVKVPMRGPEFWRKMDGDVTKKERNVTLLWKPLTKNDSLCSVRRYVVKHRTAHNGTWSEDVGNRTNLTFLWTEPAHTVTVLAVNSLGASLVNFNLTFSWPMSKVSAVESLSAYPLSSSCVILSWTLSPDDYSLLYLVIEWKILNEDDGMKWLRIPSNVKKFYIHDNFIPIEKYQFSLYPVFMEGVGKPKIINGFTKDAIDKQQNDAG

| Molecule | thickness of the LepR film after EREG was added (23 nm before) [1] | FD-glucose uptake in 3T3-L1 preadipocytes against the concentration of mouse EREG [2] | binding result [3] |
| --- | --- | --- | --- |
| mouse recombinant EREG (ligand) | 20 nm | 26 nM | – |
| B1 | – | – | binds |
